Source: the supplement of paper PMC10126150
± gives the standard deviation of the averaged measurements.

tested on: ATP; experiment: switch fluorescence ratio, 500 uM ATP over buffer (Cy3 cluster intensity, sum of 5 cycles each) (fold (ratio)); higher = stronger signal-on switching upon ATP binding; sequences stand for … in TCGTCGGCAGCGTCAGATGTGTATAAGAGACAGTTTTTTTTTTTTTTTTTTTTTTTTT…TC; conditions: aptamer strand: ATP DNA aptamer (quencher-CACCTGGGGGAGTATTGCGGAGGAAGG + anchor), 100 nM annealed; ATP concentration: 500 uM
Outline: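 The fluorescence ratio divides summed target-cycle Cy3 intensity by summed buffer-cycle Cy3 intensity for each cluster and is averaged per switch-domain sequence. Cy3-labelled switching-strand clusters on a modified Illumina MiSeq flow-cell were annealed to 100 nM quencher-labelled ATP aptamer, then imaged in selection buffer and again after 15 min with 500 uM ATP at 22 °C. Five such cycles were run, with NaOH stripping and re-annealing between them, and clusters outside 100-1000 RFU were excluded.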
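Note: ATP exposure 15 min at 22 °C before imaging.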

Sequence	switch fluorescence ratio
GTTAGCGGTT	0.9884 ± 0.0034
GTTAGCTAGG	1.04 ± 0.026
GTTAGGTTAT	1 ± 0.018
GTTAGTAAGG	1.01 ± 0.041
GTTAGTACTA	1 ± 0.038
GTTAGTGTAG	0.9975 ± 0.0011
GTTAGTTAAA	0.968 ± 0.02
GTTAGTTACT	1.01 ± 0.057
GTTAGTTTGC	1.01 ± 0.021
GTTATAACG	1 ± 0.05
GTTATATGAC	0.999 ± 0.012
GTTATCACTG	1.02 ± 0.014
GTTATCAGAT	1.02 ± 0.021
GTTATCAGGG	0.995 ± 0.026
GTTATCGCTA	1.07 ± 0.04
GTTATCTTAG	1.01 ± 0.025
GTTATGCGCG	1.03 ± 0.013
GTTATGGCTG	1.05 ± 0.021
GTTATGGTAC	1.03 ± 0.028
GTTATGGTTT	0.986 ± 0.031
GTTATGTTGT	1.01 ± 0.04
GTTATTATGT	0.994 ± 0.077
GTTATTCATG	0.988 ± 0.018
GTTATTCCGG	1.038 ± 0.0043
GTTATTCTCT	0.971 ± 0.015

Sequence	switch fluorescence ratio
GTTATTGGGG	1.01 ± 0.024
GTTATTTGTT	1.068 ± 0.0071
GTTATTTTAA	0.9846 ± 0.0027
GTTCAAAAGC	0.98 ± 0.034
GTTCAAAGCG	0.999 ± 0.029
GTTCACTACC	1.15 ± 0.0083
GTTCAGTGAG	0.995 ± 0.01
GTTCATCCAG	1.05 ± 0.017
GTTCATGGTA	0.99 ± 0.0028
GTTCATGGTT	1.01 ± 0.054
GTTCCGGCTG	1.02 ± 0.023
GTTCCGGGTT	0.983 ± 0.075
GTTCCTGCGG	1.075 ± 0.01
GTTCCTTAGG	1.01 ± 0.026
GTTCGACGGC	1.05 ± 0.095
GTTCGGCAGA	1 ± 0.032
GTTCGGGGCC	1.01 ± 0.046
GTTCGGGGTG	0.978 ± 0.003
GTTCGGGTTG	0.988 ± 0.027
GTTCGTTAGG	1.017 ± 0.0016
GTTCTATCAT	0.961 ± 0.022
GTTCTGGGGG	0.984 ± 0.024
GTTCTTGGG	0.9835 ± 0.0023
GTTCTTGTAT	0.988 ± 0.029
GTTCTTTGGG	0.995 ± 0.013

Sequence	switch fluorescence ratio
GTTCTTTGTG	1 ± 0.012
GTTGAAACTT	0.9976 ± 0.004
GTTGAAAGCG	1.03 ± 0.015
GTTGAAAGTA	0.977 ± 0.039
GTTGAAATAA	1 ± 0.047
GTTGAAGGAT	1.003 ± 0.0036
GTTGAATGAC	1.04 ± 0.0083
GTTGAATTAA	0.985 ± 0.041
GTTGACAGCT	1 ± 0.015
GTTGACAGTG	1 ± 0.062
GTTGAGGGTC	0.993 ± 0.021
GTTGAGGTCC	1.02 ± 0.041
GTTGAGTAGC	1.02 ± 0.042
GTTGATAAGG	1.01 ± 0.045
GTTGATGTAG	0.984 ± 0.028
GTTGATTGGG	0.994 ± 0.029
GTTGATTTAT	0.983 ± 0.024
GTTGATTTTA	0.972 ± 0.014
GTTGCAGCGC	0.982 ± 0.013
GTTGCAGGTG	2.06 ± 0.057
GTTGCTACCA	1.01 ± 0.053
GTTGGAAAGT	0.99 ± 0.022
GTTGGAACAG	0.969 ± 0.043
GTTGGATAAT	1 ± 0.033
GTTGGATATT	0.9976 ± 0.0064

Sequence	switch fluorescence ratio
GTTGGATCCG	0.984 ± 0.017
GTTGGATTTA	1.006 ± 0.0077
GTTGGCCCGG	0.997 ± 0.022
GTTGGGAGGC	1.064 ± 0.0014
GTTGGGCAGC	1.046 ± 0.0053
GTTGGGCTTT	0.98 ± 0.025
GTTGGGGAAA	0.9985 ± 0.0075
GTTGGGGATC	0.991 ± 0.025
GTTGGGGCCT	1.03 ± 0.051
GTTGGGGGAT	0.986 ± 0.038
GTTGGGGGGG	1.01 ± 0.03
GTTGGGGGTT	1.01 ± 0.042
GTTGGGGTTT	1.01 ± 0.031
GTTGGGTGTG	1.02 ± 0.019
GTTGGTGTGG	0.9975 ± 0.0086
GTTGGTTAGA	0.9776 ± 0.005
GTTGGTTGGG	0.975 ± 0.023
GTTGGTTGTG	0.981 ± 0.0053
GTTGGTTTGG	1.04 ± 0.013
GTTGGTTTTG	1.008 ± 0.0057
GTTGTAAAGT	1.03 ± 0.036
GTTGTAACGT	0.988 ± 0.054
GTTGTAAGAT	0.981 ± 0.028
GTTGTAAGCA	0.982 ± 0.053
GTTGTACGAA	1.19 ± 0.28

Sequence	switch fluorescence ratio
GTTGTACGAT	0.9971 ± 0.003
GTTGTAGCGG	1 ± 0.029
GTTGTAGCTG	0.967 ± 0.015
GTTGTAGTTA	1.01 ± 0.041
GTTGTATGGA	0.995 ± 0.034
GTTGTATTAG	0.988 ± 0.025
GTTGTCGTTT	0.99104 ± 0.00015
GTTGTGAAAG	1 ± 0.035
GTTGTGGTAT	0.9785 ± 0.0027
GTTGTGTCCG	1.01 ± 0.067
GTTGTTAAAT	1.011 ± 0.0047
GTTGTTATAG	1.02 ± 0.039
GTTGTTATAT	1.02 ± 0.037
GTTGTTATCG	0.993 ± 0.028
GTTGTTCTGA	0.9718 ± 0.0033
GTTGTTGAAT	0.992 ± 0.026
GTTGTTGTTT	0.999 ± 0.0094
GTTGTTTAGC	0.974 ± 0.022
GTTGTTTCGT	1 ± 0.017
GTTGTTTGGG	0.99 ± 0.034
GTTGTTTTCA	0.993 ± 0.024
GTTTAAATTA	1.02 ± 0.018
GTTTACCGGA	1.05 ± 0.08
GTTTAGATGT	0.994 ± 0.02
GTTTAGCTGT	0.9948 ± 0.0021

Sequence	switch fluorescence ratio
GTTTAGGCCC	1 ± 0.041
GTTTATGCCA	0.997 ± 0.029
GTTTATGTGG	0.981 ± 0.025
GTTTATTGTC	1.04 ± 0.037
GTTTCAAGAG	1.03 ± 0.012
GTTTCAAGCG	1.02 ± 0.025
GTTTCAGGCT	0.9888 ± 0.0041
GTTTCGAGTA	0.957 ± 0.049
GTTTCGGGCT	1.01 ± 0.012
GTTTCGGGTT	0.986 ± 0.019
GTTTCGGTGG	0.986 ± 0.085
GTTTCGTGGG	0.976 ± 0.031
GTTTCGTTTC	1.01 ± 0.025
GTTTCTATGG	0.9961 ± 0.0085
GTTTCTGGCC	0.98 ± 0.019
GTTTCTGGGG	0.971 ± 0.052
GTTTGAAAGT	0.957 ± 0.01
GTTTGAAATT	1.03 ± 0.09
GTTTGAAGCC	1.04 ± 0.078
GTTTGAAGCG	1 ± 0.054
GTTTGAAGGG	0.974 ± 0.05
GTTTGAAGGT	1.01 ± 0.011
GTTTGAATGT	0.97301 ± 0.0004
GTTTGATGGG	0.981 ± 0.033
GTTTGCCATG	0.998 ± 0.047

Sequence	switch fluorescence ratio
GTTTGCCTCC	1.03 ± 0.021
GTTTGCGTTG	0.979 ± 0.042
GTTTGCTACG	1.005 ± 0.004
GTTTGCTGTT	0.9931 ± 0.0089
GTTTGGCCAT	1.02 ± 0.02
GTTTGGGAGG	0.963 ± 0.01
GTTTGGGGAT	0.972 ± 0.022
GTTTGGGTCT	0.997 ± 0.013
GTTTGGTTAT	0.995 ± 0.012
GTTTGTATAG	1 ± 0.03
GTTTGTATTA	0.996 ± 0.011
GTTTGTATTT	1 ± 0.017
GTTTGTGAAT	0.9814 ± 0.0086
GTTTGTGCAT	1.025 ± 0.0083
GTTTGTGGCG	0.959 ± 0.024
GTTTGTTGTT	0.9819 ± 0.0016
GTTTGTTTGG	0.974 ± 0.023
GTTTTAAATG	0.975 ± 0.016
GTTTTAATTT	0.988 ± 0.019
GTTTTACCGG	1 ± 0.022
GTTTTACGGA	1.003 ± 0.0065
GTTTTATGGG	0.969 ± 0.038
GTTTTCAACA	0.98916 ± 0.00045
GTTTTCCACA	0.987 ± 0.067
GTTTTCGACT	1.04 ± 0.0095

Sequence	switch fluorescence ratio
GTTTTCGAGC	1.11 ± 0.043
GTTTTCGTGG	0.995 ± 0.021
GTTTTGAATT	1 ± 0.04
GTTTTGAGTT	1 ± 0.021
GTTTTGATTA	0.973 ± 0.017
GTTTTGGGAC	0.993 ± 0.027
GTTTTGGTCC	0.997 ± 0.012
GTTTTGTGGG	0.968 ± 0.034
GTTTTGTTTG	0.9553 ± 0.0016
GTTTTTAAGG	1.02 ± 0.032
GTTTTTCCAT	1 ± 0.024
GTTTTTCCTG	0.981 ± 0.055
GTTTTTCTTC	0.9923 ± 0.0058
GTTTTTGCGG	0.9784 ± 0.0044
GTTTTTGGTT	1 ± 0.028
GTTTTTGTGT	0.987 ± 0.025
GTTTTTTTAT	0.987 ± 0.02
GTTTTTTTGC	0.9766 ± 0.006
GTTTTTTTTG	0.999 ± 0.029
TAAAAAAAAT	1.02 ± 0.033
TAAAAAAAGA	0.999 ± 0.046
TAAAAAAAGC	1.031 ± 0.0015
TAAAAAAGAA	0.97 ± 0.03
TAAAAAATTC	1.03 ± 0.04
TAAAAAGACC	0.976 ± 0.035
